Laboratory results as given in US20160130654A1, “SYSTEMS AND METHODS FOR DIAGNOSING AND TREATING CANCER” (THE TRANSLATIONAL GENOMICS RESEARCH INSTITUTE, priority 2013, published 2016).

How the values were obtained:
Type in all cases: cell-based, Human
H1975 cells = experiment: Clonogenic (colony-formation) assay
Procedure: (§1) FIGS. 6A-6F illustrate that TWEAK-induced NSCLC cell survival is dependent on Mcl-1 expression. H1975 (FIG. 6A) and H2073 (FIG. 6B) cells were transfected with luciferase (siCont) or siRNAs targeting Mcl-1. Total lysates were collected 72 hours post-transfection and immunoblotted for Mcl-1 and alpha-tubulin. H1975 (FIGS. 6C and 6E) and H2073 (FIGS. 6D and 6F) cells transfected with control or siRNA constructs targeting Mcl-1 were exposed to 1 μM cisplatin for 24 hours (FIGS. 6C and 6D) or 2Gy ionizing radiation (FIGS. 6E and 6F)±pre-incubation with TWEAK (100 ng/mL). Cells were sparsely seeded into 6-well dishes and allowed to grow for 7 days prior to staining with crystal violet and colony counting. A colony was defined as containing at least 50 cells. Bars represent average of three independent wells±standard error with the non-treated (first bar) set to 1. * represents a p value <0.05 by ANOVA with Bonferroni posttest.
H1975 (FIG. 7A) and H2073 (FIG. 7B) cells were transfected with luciferase (siCont) or siRNA targeting Bcl-xL. Total lysates were collected 72 hours post-transfection and immunoblotted for Bcl-xL and alpha-tubulin. H1975 (FIGS. 7C and 7E) and H2073 (FIGS. 7D and 7F) cells transfected with control or siRNA construct targeting Bcl-xL were exposed to 1 μM cisplatin for 24 hours (FIGS. 7C and 7D) or 2Gy ionizing radiation (FIGS. 7E and 7F)±pre-incubation with TWEAK (100 ng/mL). Cells were sparsely seeded into 6-well dishes and allowed to grow for 7 days prior to staining with crystal violet and colony counting. A colony was defined as containing at least 50 cells. Bars represent average of three independent wells±standard error with the non-treated (first bar) set to 1. * represents a p value <0.05 by ANOVA with Bonferroni posttest.
H1975 (FIGS. 11A and 11B) cells were pre-incubated with TWEAK (100 ng/mL), (FIG. 11A) EU-5148 (10 μM), (FIG. 11B) ABT-737 (10 […]) or both drug and TWEAK prior to exposure to 2Gy ionizing radiation. Cells were sparsely seeded (125 cells) into 6-well dishes and allowed to grow for 7 days prior to staining with crystal violet and colony counting. A colony was defined as containing at least 50 cells. Bars represent average of three independent wells±standard error with the non-treated (first bar) set to 1. * represents a p value <0.05 by ANOVA with Bonferroni posttest.
FIGS. 12A-12C illustrate that pharmacologic inhibition of Mcl-1 abrogates TWEAK-mediated cell survival. […]
Observations of colony forming capacity following cytotoxic insult were performed as previously described (Franken N A, Rodermond H M, Stap J, Haveman J, van Bree C. Clonogenic assay of cells in vitro. Nat Protoc. 2006; 1:2315-9). […] Cells were then trypsinized, quantified, and equally dispersed in triplicate in 6-well cell culture dishes at 250 cells per well. […]

H2073 cells = experiment: Clonogenic (colony-formation) assay
Procedure: as §1, with “Bars represent average of three independent wells±standard error with the non-treated (first bar) set to 1. * represents a p value <0.05 by ANOVA with Bonferroni posttest.” left out
Observations of colony forming capacity following cytotoxic insult were performed as previously described (Franken N A, Rodermond H M, Stap J, Haveman J, van Bree C. Clonogenic assay of cells in vitro. Nat Protoc. 2006; 1:2315-9). […] Cells were then trypsinized, quantified, and equally dispersed in triplicate in 6-well cell culture dishes at 250 cells per well. […] Apparent colonies were counted. […] Statistical significance, defined as a p value <0.05, was determined by ANOVA analysis with Bonferroni posttests in Graphpad Prism.

[1] = system: cleaved-PARP in H1975 cells; experiment: Cleaved-PARP immunoblot (apoptosis)
Procedure: FIGS. 8A and 8B illustrate that depletion of Mcl-1 abrogates TWEAK-induced protection from cell death induced by DNA damage. H1975 cells were transfected with either siRNA targeting luciferase (control) or Mcl-1. Cells were exposed to 5 uM cisplatin (FIG. 8A) or 8Gy radiation (FIG. 8B) for 0, 4 or 24 hours±pre-incubation with TWEAK (100 ng/mL). Total cell lysates were prepared and immunoblotted for cleaved-PARP (cPARP) and GAPDH as a loading control. All blots were run in duplicate.
Mcl-1, Bcl-2, Bcl-xL, phospho-p65 (Serine residue 536), Bak, GAPDH, and cleaved-PARP antibodies were obtained from Cell Signaling Technology Inc. (Beverly, Mass.), and α-tubulin antibody was obtained from Millipore (San Diego, Calif.). Human recombinant TWEAK was purchased from PeproTech (Rock Hill, N.J.), and cisplatin was obtained from TZS Chemical via BIOTANG Inc. (Waltham, Mass.). The Mcl-1-specific inhibitor EU-5148 was kindly provided by Eutropics Pharmaceuticals (Cambridge, Mass.). ABT-737 was obtained from Selleck Chemicals (Houston, Tex.). […]

[2] = system: Mcl-1 and Bcl-xL mRNA in H1975 cells; experiment: qPCR of Mcl-1 and Bcl-xL mRNA after TWEAK; conditions: H1975, TWEAK 100 ng/mL, maximal at about 6 hours
Procedure: (§2) FIGS. 5A and 5B illustrate that TWEAK exposure enhances Mcl-1 and Bcl-xL mRNA expression. Total RNA was collected from (FIG. 5A) H1975 and (FIG. 5B) H2073 cells treated with 100 ng/mL TWEAK for the indicated time points. mRNA expression of Mcl-1 and Bcl-xL were determined by qPCR with histone H3.3 mRNA levels used as endogenous control. Bars represent the average±standard error of triplicate qPCR reactions. * represents a p value <0.05 compared to no treatment (of the respective gene) by Student's t test. All assays were run in duplicate.
(§3) Human lung adenocarcinoma cell lines H1975 and H2073 (ATCC, Manassas, Va.) were maintained in RPMI 1640 media (Invitrogen, Carlsbad, Calif.) plus 10% heat-inactivated fetal bovine serum (FBS) in a 37° C., 5% CO2 atmosphere. […]
(§4) mRNA expression was determined by qPCR as previously described (Fortin Ensign S P, Mathews I T, Eschbacher J M, Loftus J C, Symons M H, Tran N L. The Src homology 3 domain-containing guanine nucleotide exchange factor is overexpressed in high-grade gliomas and promotes tumor necrosis factor-like weak inducer of apoptosis-fibroblast growth factor-inducible 14-induced cell migration and invasion via tumor necrosis factor receptor-associated factor 2. J Biol Chem. 2013; 288:21887-97). […]

[3] = system: Mcl-1 and Bcl-xL mRNA in H2073 cells; experiment: qPCR of Mcl-1 and Bcl-xL mRNA after TWEAK; conditions: H2073, TWEAK 100 ng/mL, maximal at about 6 hours
Procedure: as §2, §3, §4

[4] = system: phosphorylated p65, Mcl-1, Bcl-xL, Bcl-2 in H1975 cells; experiment: Immunoblot after TWEAK treatment
Procedure: (§5) FIGS. 4A-4C illustrate that TWEAK induces Mcl-1 in NSCLC cell lines in an NF-κB-dependent manner. Total cell lysates were prepared from serum-reduced (FIG. 4A) H1975 and (FIG. 4B) H2073 cell lines treated with TWEAK for the indicated times and immunoblotted with the indicated antibodies: Mcl-1, Bcl-xL, and phosphorylated-p65 (Ser536). Tubulin was used as a loading control. (FIG. 4C) Serum-reduced H2073 cells transfected±IkBα mutant were treated with TWEAK for 24 hours. Cells were harvested, total cell lysates were prepared and immunoblotted with the indicated antibodies to both Mcl-1 and phospho-p65. All blots were run in duplicate and tubulin was used as a loading control.
(§6) Human lung adenocarcinoma cell lines H1975 and H2073 (ATCC, Manassas, Va.) were maintained in RPMI 1640 media (Invitrogen, Carlsbad, Calif.) plus 10% heat-inactivated fetal bovine serum (FBS) in a 37° C., 5% CO2 atmosphere. SU-DHL10 (Deng J, Carlson N, Takeyama K, Dal Cin P, Shipp M, Letai A. BH3 profiling identifies three distinct classes of apoptotic blocks to predict response to ABT-737 and conventional chemotherapeutic agents. Cancer Cell. 2007; 12:171-85), Bcl-2 1863 and Mcl-1 1780 cell lines (Ryan J A, Brunelle J K, Letai A. Heightened mitochondrial priming is the basis for apoptotic hypersensitivity of CD4+CD8+ thymocytes. Proc Natl Acad Sci USA. 2010; 107:12895-900) were maintained in RPMI 1640 plus 10% FBS with 50 μM β-mercaptoethanol added to 1863 and 1780 cells. In all assays treated with TWEAK, cells were cultured in reduced serum (0.5% FBS) for 16 hours prior to stimulation with TWEAK at 100 ng/mL in RPMI+0.1% bovine serum albumin (BSA) for the indicated times.
(§7) Mcl-1, Bcl-2, Bcl-xL, phospho-p65 (Serine residue 536), Bak, GAPDH, and cleaved-PARP antibodies were obtained from Cell Signaling Technology Inc. (Beverly, Mass.), and α-tubulin antibody was obtained from Millipore (San Diego, Calif.). Human recombinant TWEAK was purchased from PeproTech (Rock Hill, N.J.), and cisplatin was obtained from TZS Chemical via BIOTANG Inc. (Waltham, Mass.). The Mcl-1-specific inhibitor EU-5148 was kindly provided by Eutropics Pharmaceuticals (Cambridge, Mass.). ABT-737 was obtained from Selleck Chemicals (Houston, Tex.). Immunoblot analysis was performed as previously described (Whitsett T G, Cheng E, Inge L, Asrani K, Jameson N M, Hostetter G, et al. Elevated expression of Fn14 in non-small cell lung cancer correlates with activated EGFR and promotes tumor cell migration and invasion. Am J Pathol. 2012; 181:111-20; Tran N L, McDonough W S, Savitch B A, Sawyer T F, Winkles J A, Berens M E. The tumor necrosis factor-like weak inducer of apoptosis (TWEAK)-fibroblast growth factor-inducible 14 (Fn14) signaling system regulates glioma cell survival via NFkB pathway activation and BCL-XL/BCL-W expression. J Biol Chem. 2005; 280:3483-92).

[5] = system: phosphorylated p65, Mcl-1, Bcl-xL in H2073 cells; experiment: Immunoblot after TWEAK treatment; conditions: H2073, TWEAK 100 ng/mL
Procedure: as §5, §6, §7

## CN(C)CC[C@H](CSc1ccccc1)Nc1ccc(S(=O)(=O)NC(=O)c2ccc(N3CCN(Cc4ccccc4-c4ccc(Cl)cc4)CC3)cc2)cc1[N+](=O)[O-] [ABT-737]
H1975 cells; H1975, drug 10 μM plus TWEAK 100 ng/mL, 2Gy ionizing radiation
  effect on TWEAK-induced cell survival: lesser effect on TWEAK-induced cell survival
H1975 cells; H1975, drug 10 μM pre-incubation, 2Gy ionizing radiation
  sensitivity to radiation (cell survival, colony count): did sensitize H1975 cells to radiation

## N.N.[Cl][Pt][Cl] [cisplatin, reference compound]
H1975 cells; H1975, 1 μM cisplatin
  cell survival (colony formation): significantly reduced NSCLC cell survival
H2073 cells; H2073, 1 μM cisplatin
  cell survival (colony formation): significantly reduced NSCLC cell survival
[1]; H1975, 5 uM cisplatin, 0, 4 or 24 hours
  protein expression of cleaved-PARP: induces protein expression of cleaved-PARP over time

B1: TWEAK: Human recombinant tumor necrosis factor-like weak inducer of apoptosis, purchased from PeproTech (protein, UniProt O43508 94-249, looked up)
Tumor necrosis factor ligand …: SAPKGRKTRARRAIAAHYEVHPRPGQDGAQAGVDGTVSGWEEARINSSSPLRYNRQIGEFIVTRAGLYYLYCQVHFDEGKAVYLKLDLLVDGVLALRCLEEFSATAASSLGPQLRLCQVSGLLALRPGSSLRIRTLPWAHLKAAPFLTYFGLFQVH
H1975 cells; H1975, TWEAK 100 ng/mL, 1 μM cisplatin or 2Gy
  cell survival after cisplatin or radiation with TWEAK pre-treatment: significantly attenuated the effects of either cisplatin or radiation
[2]
  maximal increase of Mcl-1 and Bcl-xL mRNA levels: 10 fold
[3]
  maximal increase of Mcl-1 and Bcl-xL mRNA levels: 50 fold
H2073 cells; H2073, TWEAK 100 ng/mL, 1 μM cisplatin or 2Gy
  cell survival after cisplatin or radiation with TWEAK pre-treatment: significantly attenuated the effects of either cisplatin or radiation
[1]; H1975, TWEAK 100 ng/mL, 5 uM cisplatin or 8Gy radiation, 4 or 24 hours
  induction of cleaved-PARP with TWEAK pretreatment: completely abrogates the induction of cleaved-PARP
[4]; H1975, TWEAK 100 ng/mL
  phosphorylated p65 (P-p65): clear induction
  protein expression of Mcl-1 and Bcl-xL over time: incremental increases
[4]; H1975, TWEAK exposure
  protein expression of Bcl-2: up-regulated
[5]
  phosphorylated p65 (P-p65): clear induction
  protein expression of Mcl-1 and Bcl-xL over time: incremental increases
